This note sets out measurements from US20170210799A1 (Janssen / Centocor, published 2017).

T1: human FcγRIIb (human, UniProt P31994 46-217)
T1 construct: bought, His-tagged, on Ni2+ Acceptor beads; also called FcγRIIb/c (CD32b/c)
T1 sequence (looked up): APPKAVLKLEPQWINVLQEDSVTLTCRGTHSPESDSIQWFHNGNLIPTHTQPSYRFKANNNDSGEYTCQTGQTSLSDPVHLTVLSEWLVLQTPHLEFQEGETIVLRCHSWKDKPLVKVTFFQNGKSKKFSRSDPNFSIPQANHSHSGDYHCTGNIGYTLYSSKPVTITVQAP

T2: human FcγRIIa (CD32a) (human, UniProt P12318 36-218)
T2 construct: bought, His-tagged, on Ni2+ Acceptor beads
T2 sequence (looked up): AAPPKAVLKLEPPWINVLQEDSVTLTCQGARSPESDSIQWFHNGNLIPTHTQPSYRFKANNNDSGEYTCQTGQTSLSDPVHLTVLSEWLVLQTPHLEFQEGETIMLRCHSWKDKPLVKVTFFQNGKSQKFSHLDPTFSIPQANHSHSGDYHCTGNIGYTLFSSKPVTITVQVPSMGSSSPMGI

B1: RCDB5 (bispecific antibody, human IgG4 S228P, kappa, lambda, F234A L235A)
heavy 1: not shown
light 1: not shown
heavy 2: EVQLVESGGGLVQPGGSLRLSCAASGFTFNTYAMNWVRQAPGKGLEWVARIRSKYNNYATYYAASVKGRFTISRDDSKNSLYLQMNSLKTEDTAVYYCARHGNFGNSYVSWFAYWGQGTLVTVSSASTKGPSVFPLAPCSRSTSESTAALGCLVKDYFPEPVTVSWNSGALTSGVHTFPAVLQSSGLYSLSSVVTVPSSSLGTKTYTCNVDHKPSNTKVDKRVESKYGPPCPPCPAPEAAGGPSVFLFPPKPKDTLMISRTPEVTCVVVDVSQEDPEVQFNWYVDGVEVHNAKTKPREEQFNSTYRVVSVLTVLHQDWLNGKEYKCKVSNKGLPSSIEKTISKAKGQPREPQVYTLPPSQEEMTKNQVSLTCLVKGFYPSDIAVEWESNGQPENNYKTTPPVLDSDGSFLLYSKLTVDKSRWQEGNVFSCSVMHEALHNHYTQKSLSLSLGK
light 2: QTVVTQEPSLTVSPGGTVTLTCRSSTGAVTTSNYANWVQQKPGQAPRGLIGGTNKRAPGTPARFSGSLLGGKAALTLSGVQPEDEAEYYCALWYSNLWVFGGGTKLTVLGQPKAAPSVTLFPPSSEELQANKATLVCLISDFYPGAVTVAWKADSSPVKAGVETTTPSKQSNNKYAASSYLSLTPEQWKSHRSYSCQVTHEGSTVEKTVAPTECS
notes: also called ROR1×CD3 bispecific antibody
B2: RCDB13 (bispecific antibody, human IgG4 S228P, kappa, lambda, F234A L235A)
heavy 1: not shown
light 1: not shown
heavy 2: B1 heavy 2
light 2: B1 light 2
notes: DuoBody IgG4 PAA, ROR1 arm + CD3B219 arm; also called RR1B78 × CD3B219
B3: RCDB4 (bispecific antibody, human IgG4 S228P, kappa, lambda, F234A L235A)
heavy 1: not shown
light 1: not shown
heavy 2: B1 heavy 2
light 2: B1 light 2
notes: DuoBody IgG4 PAA, ROR1 arm + CD3B219 arm; also called RR1B66 × CD3B219
B4: RCDB7 (bispecific antibody, human IgG4 S228P, kappa, lambda, F234A L235A)
heavy 1: not shown
light 1: not shown
heavy 2: B1 heavy 2
light 2: B1 light 2
notes: DuoBody IgG4 PAA, ROR1 arm + CD3B219 arm; also called RR1B70 × CD3B219
B5: RCDB3 (bispecific antibody, human IgG4 S228P, kappa, lambda, F234A L235A)
heavy 1: not shown
light 1: not shown
heavy 2: B1 heavy 2
light 2: B1 light 2
notes: DuoBody IgG4 PAA, ROR1 arm + CD3B219 arm; also called RR1B65 × CD3B219
B6: RCDB17 (bispecific antibody, human IgG4 S228P, kappa, lambda, F234A L235A)
heavy 1: not shown
light 1: not shown
heavy 2: B1 heavy 2
light 2: B1 light 2
notes: DuoBody IgG4 PAA, ROR1 arm + CD3B219 arm; also called RR1B85 × CD3B219
B7: RCDB11 (bispecific antibody, human IgG4 S228P, kappa, lambda, F234A L235A)
heavy 1: not shown
light 1: not shown
heavy 2: B1 heavy 2
light 2: B1 light 2
notes: DuoBody IgG4 PAA, ROR1 arm + CD3B219 arm; also called RR1B76 × CD3B219
B8: RCDB9 (bispecific antibody, human IgG4 S228P, kappa, lambda, F234A L235A)
heavy 1: not shown
light 1: not shown
heavy 2: B1 heavy 2
light 2: B1 light 2
notes: DuoBody IgG4 PAA, ROR1 arm + CD3B219 arm; also called RR1B72 × CD3B219
B9: RCDB5 (bispecific antibody, human IgG4 S228P, kappa, lambda, F234A L235A)
heavy 1: not shown
light 1: not shown
heavy 2: B1 heavy 2
light 2: B1 light 2
notes: DuoBody IgG4 PAA, ROR1 arm + CD3B219 arm
B10: RCDB15 (bispecific antibody, human IgG4 S228P, kappa, lambda, F234A L235A)
heavy 1: not shown
light 1: not shown
heavy 2: B1 heavy 2
light 2: B1 light 2
notes: DuoBody IgG4 PAA, ROR1 arm + CD3B219 arm; also called RR1B83 × CD3B219
B11: RCDB6 (bispecific antibody, human IgG4 S228P, kappa, lambda, F234A L235A)
heavy 1: not shown
light 1: not shown
heavy 2: B1 heavy 2
light 2: B1 light 2
notes: as for B9
B12: RCDB16 (bispecific antibody, human IgG4 S228P, kappa, lambda, F234A L235A)
heavy 1: not shown
light 1: not shown
heavy 2: B1 heavy 2
light 2: B1 light 2
notes: DuoBody IgG4 PAA, ROR1 arm + CD3B219 arm; also called RR1B84 × CD3B219
B13: RCDB19 (bispecific antibody, human IgG4 S228P, kappa, lambda, F234A L235A)
heavy 1: not shown
light 1: not shown
heavy 2: B1 heavy 2
light 2: B1 light 2
notes: DuoBody IgG4 PAA, ROR1 arm + CD3B219 arm; also called RR1B88 × CD3B219
B14: RCDB12 (bispecific antibody, human IgG4 S228P, kappa, lambda, F234A L235A)
heavy 1: not shown
light 1: not shown
heavy 2: B1 heavy 2
light 2: B1 light 2
notes: DuoBody IgG4 PAA, ROR1 arm + CD3B219 arm; also called RR1B77 × CD3B219
B15: RCDB8 (bispecific antibody, human IgG4 S228P, kappa, lambda, F234A L235A)
heavy 1: not shown
light 1: DIQMTQSPSSLSASVGDRVTITCRASQSIDRHLNWYQQKPGKAPKLLIYKASSLQSGVPSRFSGSGSGTDFTLTISSLQPEDFATYYCQQPHTFPLTFGQGTKVEIKRTVAAPSVFIFPPSDEQLKSGTASVVCLLNNFYPREAKVQWKVDNALQSGNSQESVTEQDSKDSTYSLSSTLTLSKADYEKHKVYACEVTHQGLSSPVTKSFNRGEC
heavy 2: B1 heavy 2
light 2: B1 light 2
notes: DuoBody IgG4 PAA, ROR1 arm + CD3B219 arm; also called RR1B71 × CD3B219
B16: RCDB18 (bispecific antibody, human IgG4 S228P, kappa, lambda, F234A L235A)
heavy 1: not shown
light 1: not shown
heavy 2: B1 heavy 2
light 2: B1 light 2
notes: DuoBody IgG4 PAA, ROR1 arm + CD3B219 arm; also called RR1B86 × CD3B219
B17: RCDB14 (bispecific antibody, human IgG4 S228P, kappa, lambda, F234A L235A)
heavy 1: not shown
light 1: not shown
heavy 2: B1 heavy 2
light 2: B1 light 2
notes: DuoBody IgG4 PAA, ROR1 arm + CD3B219 arm; also called RR1B82 × CD3B219
B18: RR1B78 (antibody, human IgG4 S228P, kappa, F234A L235A, V domains shown)
VH: EVQLVQSGAEVKKPGESLKISCKGSGYSFTSYWIGWVRQMPGKGLEWMGIIYPGDSDTRYSPSFQGQVTISADKSISTAYLQWSSLKASDTAMYYCARDVGRWAPGGFLDYWGQGTLVTVSS
VL: not shown
notes: huIgG4 PAA/kappa

For the first experiment, the target named is T3, human FcγRI (CD64) (human, UniProt P12314 16-288).
T3 construct: bought, His-tagged, on Ni2+ Acceptor beads; also called FcγR1
The experiment is described as follows: competition AlphaScreen.
With B1, the binding result was “binds”.

A further experiment has as its target T1, human FcγRIIb. The experiment is described as follows: competition AlphaScreen.
In the case of B1, the binding result is reported as “binds”.

Another experiment has as its target T4, human FcγRIIIa (CD16a) (human, UniProt P08637 17-208).
T4 construct: bought, His-tagged, on Ni2+ Acceptor beads
Nature of the experiment: competition AlphaScreen.
B1: the binding result is given as “binds”.

A further experiment deals with T5, human ROR1 (Receptor Tyrosine Kinase-Like Orphan Receptor 1) on cells (human, UniProt Q01973 30-937). Nature of the experiment: cell-based or functional assay.
On to B2, for which the “Killing EC50” value worked out at 0.539 nM.

Consider B3, for which the “Killing EC50” value came out at 0.677 nM.

As for B4, the “Killing EC50” value is 16.9 nM.

Turning to B5, the “Killing EC50” value was found to be 2.48 nM.

As for B6, the “Killing EC50” value was found to be 5.17 nM.

Regarding B7, the “Killing EC50” value was 0.247 nM.

With B8, the “Killing EC50” value was 3.21 nM.

For the molecule B9, the “Killing EC50” value was determined as 0.454 nM.

On to B10, for which the “Killing EC50” value came out at 1.28 nM.

Regarding B11, the “Killing EC50” value came to 0.437 nM.

In the case of B12, the “Killing EC50” value worked out at 2.91 nM.

The next experiment has as its target T6, human ROR1 (Receptor Tyrosine Kinase-Like Orphan Receptor 1) on cells (human, UniProt Q01973 30-937).
T6 construct: whole, on cells; endogenous on SKMES-1, MDA-MB231, H358, HCC827 and MCL lines, or on HEK293 cells transfected with human ROR1 (pDR25226); the cell line is named under assay; also called cell-surface ROR1; hu ROR1
The experiment is described as follows: MSD-CAT, cells expressing ROR1.
In turn, B1 gave a Kd of about 0.3 nM.

For a further experiment, the target named is T5, human ROR1 (Receptor Tyrosine …). Nature of the experiment: flow cytometry, HCC827 cells.
The molecule B2 yielded an EC50 of 1.64 nM.

In turn, B13 gave an EC50 of 16.2 nM. Compared with the last molecule, the EC50 is about 9.9-fold higher.

The molecule B3 returned an EC50 of 9.14 nM. This EC50 is about 1.8-fold lower than that of the molecule before.

On to B4, for which the EC50 was 1 nM.

B5 returned a half-maximal effective concentration (EC50) of 3.77 nM.

For B6, the response was half-maximal at 4.72 nM (EC50).

For B7, the EC50 was found to be 2.36 nM.

On to B8, for which the EC50 worked out at 16.9 nM.

In the case of B14, the EC50 was determined as 1.25 nM.

Turning to B9, the response was half-maximal at 3.74 nM (EC50).

As for B15, the EC50 was determined as 10.6 nM.

With B16, the EC50 was found to be 5.07 nM.

Turning to B10, the EC50 is 6.34 nM.

Regarding B11, the EC50 is 6.25 nM.

The molecule B17 came in with an EC50 of 6.21 nM. This EC50 and that of the molecule before are within 1.5-fold of each other.

For B12, the EC50 was 10.4 nM.

The next experiment has the same target. The experiment is described as follows: MSD-CAT, HEK293 cells expressing human ROR1.
B2 displayed a Kd of 0.254 nM.

Molecule B7 came in with an equilibrium dissociation constant (Kd) of 0.382 nM. Against the preceding molecule, the Kd is about 1.5-fold higher.

Take B8: the Kd is 2.27 nM.

As to B14, the Kd worked out at 0.236 nM. Against the preceding molecule, the Kd is about 9.6-fold lower.

As to B9, the Kd worked out at 0.331 nM.

Regarding B11, the affinity, expressed as Kd, was 0.648 nM.

The target in another experiment is T6, human ROR1 (Receptor Tyrosine …). The experiment is described as follows: detection of control ROR1+ cell lines spiked into fixed whole blood.
On to B18, for which the binding result was “binds”.

For the next experiment the target is unchanged. The experiment is described as follows: MSD-CAT; 1000 pM antibody equilibrated with serially diluted HEK293 cells overexpressing human ROR1.
In the case of B1, the “IC50 (read off the curve)” value is about 1 nM.

The target is the same in a further experiment. The experiment is described as follows: MSD-CAT; 200, 40 or 8 pM antibody equilibrated with serially diluted HEK293 cells overexpressing human ROR1.
For the molecule B1, the “IC50 (read off the curve)” value is about 0.4 nM.

The target in another experiment is T7, human FcRn (FCGRT/B2M Heterodimer) (human, UniProt P55899 24-297; P61769 21-119).
T7 construct: bought heterodimer, His-tagged
The experiment is described as follows: AlphaScreen competition: unlabeled competitor antibody against biotinylated B21M WT IgG1 for His-tagged human FcRn; 1x PBS, 0.05% BSA, 0.01% Tween-20, pH 6.0.
As to B1, the binding result is on record as “binds”.

Another experiment deals with T2, human FcγRIIa (CD32a). The experiment is described as follows: AlphaScreen competition: unlabeled competitor antibody against biotinylated B21M WT IgG1 for His-tagged human FcγRIIa; 1x PBS, 0.05% BSA, 0.01% Tween-20, pH 7.2.
Turning to B1, the binding result is reported as “binds”.
